From the nanobody polyreactivity screen of Harvey et al. (2022) come the findings set out here.

The data set can be described thus: yeast display, Sf9 membrane polyspecificity reagent, FACS + sequencing; frameworks hold sequencing errors. In short, it runs like this: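 In a synthetic yeast display library (Saccharomyces cerevisiae BJ5465), nanobody expression was induced with galactose for 36–48 hours. FACS gates were set low and high (top ~1%) using anti-HA fluorescence for expression and streptavidin fluorescence for binding of the Sf9 membrane reagent. Each polyreactivity label is drawn from the gate of origin.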
Regarding “QVQLVESGGGLVQAGGSLRLSCAASGSTFSRYAMGWYRQAPGKERELVAAISRGGNTYYADSVKGRFTISRDNAKNTVYLQMNSLKPEDTAVYYCNRYSKLYNTMDYWGQGTQVTVSS”, the “polyreactivity (PSR sort gate)” value is given as “high polyreactivity”.

Turning to “QVQLVESGGGLVQAGGSLRLSCAASGGTFGKNAMGWYRQAPGKERELVAAITWSGARTFYADSVKGRFTISRDNAKNTVYLQMNSLKPEDTAVYYCGKGGTRFTRYEYWGQGTQVTVSS”, the “polyreactivity (PSR sort gate)” value is given as “high polyreactivity”.

In the case of “QVQLVESGGGLVKAGGSLRLSCAASGSTFSRYAMGWYRQAPGKEREFVADITFRTSSTNYADSVKGRFTISRDNAKNTVYLQMNSLKPEDPAVYYCATDTQYKSYAHDYWGQGTQVTVSS”, the “polyreactivity (PSR sort gate)” value is “low polyreactivity”.

Take “QVQLVESGGGLVQAGGSLRLSCAASGITSPYAMGWYRQAPGKERELVAAISWSGSSTYYADSVKGRFTISRDNAKYTVYLQMNSLNPEDTAVYYCATLVSASRSRRFGYEYWGQGSQVTVSS”: the “polyreactivity (PSR sort gate)” value is recorded as “high polyreactivity”.

As for “QVQLVESGGGLVQAGGSLRLSCAASGSTFSNNAMGWYRQAPGKERELVASTNYADSVKGRFTISRDNEKNTVYLQMNSLKPEDTAVYYCAAGAYPSWGLDFWGQGTQVTVSS”, the “polyreactivity (PSR sort gate)” value was “low polyreactivity”.

Take “QVQLVESGGGLVQAGGSLRLSCAASGSTLGYYVMGWYRQAPGKERELVAAITGGGSTDYADSVKGRFTISRDNAKNTVYLQMNSLIPEDTAVYYCAAERTRTGQLFWWGPIYDYWGQGTQVTVSS”: the “polyreactivity (PSR sort gate)” value was “low polyreactivity”.

With “QVQLVESGGGLVQAGGSLRLSCAASGSIFYFYAMGWYRQAPGKERELVAAISWSGGSTYYADSVKGRFTISRDNAKNTVYLQMNSLKPEDTAVYYCNAADYWYWENDYWGQGTQVTVSS”, the “polyreactivity (PSR sort gate)” value is on record as “low polyreactivity”.

With “QVQLVESGGGLVQAGGSLRLSCAASGSIFYRYSMGWYRPAPGKESELVATITQSGVTTYYADSVKGRFTISRDNAKNTVYLELNSVKPEDTAVYYCAASYYYYLGPFFRKFDWGQGTQVTVSS”, the “polyreactivity (PSR sort gate)” value is given as “low polyreactivity”.

In the case of “QVQLVESGGGLVQAGGSLRLSCAASGSIFAWYGMGWSRQAPGKERELVAAISTAGSTNYADSVKGRFTISRDNAKNTVYFQMNSLKPEDTAVYYCAKKSSWYYPERFDYWGQGTQVTVSS”, the “polyreactivity (PSR sort gate)” value was “low polyreactivity”.

For “QVQLVESWGGLVHAGGSLRLSCAASGSTFYWYAMGWYIQAPGKEREFVARISSSGSSTFYADSVKGRFTISRDNAKNTVYLQMNSLKPEDTAVYYCAAETYRHYCFNYWGQGTQVTVSS”, the “polyreactivity (PSR sort gate)” value is recorded as “high polyreactivity”.

“QVQLVESGGGLVQAGGSLRLSCAASGFTFKFNAMGWYRQAPGKERELVAAISYSGGSTYYADSVKGRFTISRDNAKNTVYLQMNSLKPEDTAVYYCAARAYWYGASYYYWGQGPQVTVSS”: the “polyreactivity (PSR sort gate)” value is “high polyreactivity”.

“QVQLVESGGGLVQAGGSLRLSCAASGRIFNWYAMGWYRQAPGKERELVARISSGDITSYADSVKGRFTISRDNAKNTVYLQMNSLKPEDTAVYYCAARQWFLYDYWGHGTQVTVSS”: the “polyreactivity (PSR sort gate)” value is reported as “low polyreactivity”.

Consider “QVQLVESGGGLVQAGGSLRLSCAASGSTFQTYVMGWYRQAPGKERELVAAISSGGSTNYADSVKGRFTISRDNAKNTVYLQMISLKPEDTAVYYCAKRWPYFRRGKDGYWGQGTQVTVSS”, for which the “polyreactivity (PSR sort gate)” value is “low polyreactivity”.

Take “QVQLVESGGGLVQAGGSLRLSCAASGRTFHTYAIGWYRQAPGKERELVAAITRRGGSTYYADSVKGRFTISRDNAKNTVYLQMNSLKPEDTAVYYSAAPWYGYWGQGTQVTVSS”: the “polyreactivity (PSR sort gate)” value is “high polyreactivity”.

Regarding “QVQLVESGGGLVQAGGSLRLSCAASGSIFPRNAMGWYRQAPGKERELVAAIRKSGGSTYYADSVKGRFTISRDNAKNTVYLQMNSLKPEDTAVYYCAKTYSVSSWQSPIYNYWGQGTQVTVSS”, the “polyreactivity (PSR sort gate)” value is recorded as “low polyreactivity”.

For “QVQLVESGGGLVKAGGSLRLSCAASGSNFTFYAMGWYRQAPGKVRELDATISLRGGRKYYADSVKGRFTISRDNAKNTVYLQMNSLKPEDTAVYYCNAPAYYGGYRFRGYNYWGQGTQVTVSS”, the “polyreactivity (PSR sort gate)” value was “high polyreactivity”.

For “QFQLVESGGGLVQAGGSLRLSCAASGSIFFYYAMGWYRQAPGKERELVAAITFTGGSTYYADSVKGRFTISRDNAKNTVYLQMNSLKPEDTAVYYCADYWYYGDEYVYWGQGTQVTVSS”, the “polyreactivity (PSR sort gate)” value is listed as “high polyreactivity”.

With “QVQLLESGGGLVQAGGSLRLTCAASGLTFSNYAMGWYRQAPGKERELVADIRSGGNTNYADSVKGRFTISRDNAKNTVYLQMNSLKPEDTAVYYCATDGYRIDVYHPDYRYDYWGQGTQVTVSS”, the “polyreactivity (PSR sort gate)” value is reported as “low polyreactivity”.

With “QVQLVESGGGLVQAGGSLRLSCAASGSIFDAYAMGWYRQATGKERELVAAITYSGGSTYYADSVKGRFTISRDNAKNTVYLQMNSLKPEDTAVYYCNTDSRVRTWFRAFTYDSWGQGTQVTVSS”, the “polyreactivity (PSR sort gate)” value is “low polyreactivity”.

Turning to “QVQLVESGGGLVQAGGSIRLSCAASGLIFRYYTMGWYRQAPGKERELVATITKSGSSTYYADSVKGRFTISRDNAKNTVYLQMNSLKPEDTAVYYCAARVTRRYDYWGQGTQLTVSS”, the “polyreactivity (PSR sort gate)” value is given as “high polyreactivity”.

With “QFQLVESGGGLVQPGGSLRLSCAASGGIFKRYAIGWYRQAPGKERELVAGISRRSGRTYYADSVKGRFTISRDNAKNTVYLQMNSLKPEDTAVFYCAARGIGGYDYWGHGTQVTVSS”, the “polyreactivity (PSR sort gate)” value is “high polyreactivity”.

Turning to “QVQLVDSGGGLVQAGGSLLLICAASGSTIPRNAMGWYRQAPGKERELVAAITSGGSTNYADSVKGRFTISRDNAKNTVYLQMNSLKPEDTAVYYCAADEQVNTQYVVWGDYWGHGTQVTVSS”, the “polyreactivity (PSR sort gate)” value is recorded as “low polyreactivity”.

For “QDQLVESGGGLVQAGGSLRLSCAASGRLIPSYVMGGYRPAQGKETEFVAGIRRGGGSTYYADSVKGRFTISRDNAKNTVYLQMNSLKPEDTAVYYSAAVKYSRPGVYHGHDSWRQGTQVTVSS”, the “polyreactivity (PSR sort gate)” value is “high polyreactivity”.

With “QVQLVESGGGLVQAGGSLRLSCAASGFIFSGYAMGWYRQAPGKERELVASISWSGARTNYADSVKGRFTISRDNAKNTVYLQMNSLKPEDTAVYYCAAQVGRGYEVYPVYKYGYWGQGTQVTVSS”, the “polyreactivity (PSR sort gate)” value was “high polyreactivity”.

For the sequence “QVQLVESGGGLVQAVGSLRLSCAASGLTFYSNAMGWYRQAPGKERELVATISQDGGRTYYADSVKGRFTISRDNAKNTVYLQMNSLKPEDTAVYYCAKDLYHTVGRYDYWGQGTQVTVSS”, the “polyreactivity (PSR sort gate)” value is “low polyreactivity”.

Consider “QVQLVESGGGLVQAGGSLRISCAASGRIFATNAMGWYRQAPGKERELVATITRSAGRTYYADSVKGRFTISRDTAKNTVYLQMNSLKPEDNAVYYFAASYGDTEPGYREYDYWGQGTQVTVSS”, for which the “polyreactivity (PSR sort gate)” value is “low polyreactivity”.

With “QVQLVESGGGLVQAGGSLRLSCDASGSTFYVYAMGWYRQAPGKERELVASINSSTSTNYADSVKGRFTISRDNAKNTVYLQMNSLKPEDTAVYYCAADSRVPEYRSPKNDYWGQGTQVTVSS”, the “polyreactivity (PSR sort gate)” value was “low polyreactivity”.

For “QVQLVESGGGLVQAGVSLRLSCAASGRTFRRYVMGWNRQAPGKERELVASITRGTGTDYADSVKGRFTISRDNRMNTVYLQMNSLKPEDTAVYYGNVKFGQPIYGEFDYWGQGTQVTVSS”, the “polyreactivity (PSR sort gate)” value is “low polyreactivity”.

For “QVQLVESGGGLVQAGGSLRLRCAASARTFGKYAMGWYRQAPGKERELVASNSLSGGSTYYADSVKGRFTISRDNAKNTVYLQMNSLKPEDTAVYSCAAKHGWYGLGYWGQGTQVTVSS”, the “polyreactivity (PSR sort gate)” value is “low polyreactivity”.

Turning to “QVQLVESGGGLVQAGGSLRLSCAASGRTFRYYAMGWYRQAPGKERELVAAINRGGSTYYADSVKGRFTISRDNAKNTVYLQMNSLKPEDTAVYYCNTARGSKDPPHYYWGQGSQVTVSS”, the “polyreactivity (PSR sort gate)” value is “high polyreactivity”.

As to “QVQLVESGGGLVQAGGSLRLSFAASGSTFWLYPMGWYRQATAKDREFVATISSSTTYYADSVKGRFTISRDNAKNTVYLQMNCLKAEDTEVYYCAKQHGLTSGGSRTDYWGQGTQGTVSS”, the “polyreactivity (PSR sort gate)” value is given as “low polyreactivity”.

Consider “QVQLVESGGGLVQAGGSLRLSCAASGFIFNLYAMGWYRQAPGKERELVATITNRGGITHYADSVKGRFTISRDNAKNTVYLQMNSLKPEDSAVYYCAVKVYRRSGGYEYWGQGTQVTVSS”, for which the “polyreactivity (PSR sort gate)” value is given as “low polyreactivity”.

Consider “QVQLVESGGGLVQAGGSIRLSCAASGSTFVWNAMGWYRQAPGKERELVAAISSSGGSTYYADSVKGRFTISRDNAKNTVYLQMNSLKPEDTAVYYCAAYYGRRRFGYWGQGTQVTVSS”, for which the “polyreactivity (PSR sort gate)” value is “high polyreactivity”.

Turning to “QVQLVESGGGLVQAGGSLRLSCASSGFTFWRNAMGWYRQAPGKERELVAAINWSGGSTYYADSVKGRFTISRDNAKNTVYLQMNSLKPEDTAVYYCAADLSSRGISQDDYWGQCTQVTVSS”, the “polyreactivity (PSR sort gate)” value is reported as “high polyreactivity”.

As for “QVQLVESGGGLVQAGGSLRLSCAASGITFVTYAMGWYRQAPGKEREFVASINWITGNTYYADSVKGRFTISRDNAKNTVYLQMNSLKPEDTAVYYCATVDWSLYLGTPPSYYWGQGTQVTVSS”, the “polyreactivity (PSR sort gate)” value was “low polyreactivity”.

Take “QVQLVESGGGLVQAGGSLRLICAASGRTFYSYAMGWYRQAPGKERELVASISSGGGTNYADSVKGRFTISRDNAKNTVYLQKNSLKPEDTAVYYCDVDPYPYRGYDYWGQGTQVTVSS”: the “polyreactivity (PSR sort gate)” value is reported as “low polyreactivity”.

As to “QVQLVESGGGLVQAGGSLRLSCAASGITFYFNAIGWYRQAPGKDRELVAAIAWPGGSTYYADSVKGRFTISRDNAKHTVFLQMNSLKPEDTAVYYCNGVFRYWYADSWFGAYDYWGQGTQVTVSS”, the “polyreactivity (PSR sort gate)” value was “high polyreactivity”.

As for “QVQLVESGGGLVQAGGSLRITCAASGSIFYSNVMGWSRPAPGKERELVARITDAGSTNYADSVKGRFTISRDYAKNTVYLQMYSLKPEDTAVYYCIARLVIYTYDYWGQGTQVTVSS”, the “polyreactivity (PSR sort gate)” value is reported as “low polyreactivity”.

“QVQLVESGGGLVQAGVSLRLSCAASGIFRRYAMGWYIQAPGKERELVAAISSNGGSTYYADSVKGRFTISRDNAKNTVYLQMNSLKPEDTAVYYCNADVYVWNYYYWGQGTQVTVSS”: the “polyreactivity (PSR sort gate)” value was “high polyreactivity”.

Take “QVQLVESGGGLVQAGGSLRLSCSACGGIFDWYAMGWYRQAPGKERELVAAIDFSGDSTYYADSVKGRFTISRDNAKNTVYLQMNSLKPEDTAVYYCAAETNTWYLFDYWGQGTQVTVSS”: the “polyreactivity (PSR sort gate)” value is reported as “high polyreactivity”.

With “QVQLVESGGGLVQAGGSLRLSCAASGRTLWGNAMGWYRQAPGKERELVAAISRSGYTNYADSVKGRFTISRDNAKNTVYLLMNRLKPEDTAVYYCNARSTRSRTYQSYDYWGQGTQVTVSS”, the “polyreactivity (PSR sort gate)” value is given as “high polyreactivity”.
